Data: patent US20250197495A1 (Bristol-Myers Squibb, published 2025)

Target: T1, cynomolgus LAG-3 (cynomolgus)
T1 construct: whole, on cells; also called primate LAG-3
Assay: flow cytometry on transfected CHO cells and activated cynomolgus T cells; which cell type gives which end is not stated

EC50: 21.5 to 34.3 nM
B1: BMS-986016 (antibody, human IgG4 S228P, kappa, V domains shown)
VH: QVQLQQWGAGLLKPSETLSLTCAVYGGSFSDYYWNWIRQPPGKGLEWIGEINHRGSTNSNPSLKSRVTLSLDTSKNQFSLKLRSVTAADTAVYYCAFGYSDYEYNWFDPWGQGTLVTVSS
VL: EIVLTQSPATLSLSPGERATLSCRASQSISSYLAWYQQKPGQAPRLLIYDASNRATGIPARFSGSGSGTDFTLTISSLEPEDFAVYYCQQRSNWPLTFGQGTNLEIKR
notes: Fully human IgG4 with the stabilizing hinge mutation S228P; also called anti-LAG-3 antibody
